Source: publication PMC5148612, “Mechanism of cargo-directed Atg8 conjugation during selective autophagy” (eLife, 2016)
Numbering of substitutions follows the chain as printed.

Columns and labels:
Conditions in all cases: both partners purified
Atg12~Atg5 conjugate [1] = molecular target: T1, Atg12~Atg5 conjugate (S. cerevisiae, UniProt P38316 1-186; Q12380 1-294, conjugated to Atg5 (Atg12~Atg5 protein conjugate) | conjugated to Atg12); experiment: pull-down; GST-fused bait 5 µM and GST-free prey 5 µM with glutathione Sepharose 4B, 1 hr at 4°C; washed with 25 mM HEPES pH 7.5, 150 mM NaCl, 1 mM DTT and 0.1% TritonX100; Western blot (Figures 1A, 1C, 2A, 2C)
T1 construct: Atg12, S. cerevisiae; Atg5, S. cerevisiae; the two chains are covalently joined; source: E. coli Rosetta pLysS, co-expression of 6xHis-Atg5, Atg12, Atg7 and Atg10, purified
T1 sequence (looked up) 1: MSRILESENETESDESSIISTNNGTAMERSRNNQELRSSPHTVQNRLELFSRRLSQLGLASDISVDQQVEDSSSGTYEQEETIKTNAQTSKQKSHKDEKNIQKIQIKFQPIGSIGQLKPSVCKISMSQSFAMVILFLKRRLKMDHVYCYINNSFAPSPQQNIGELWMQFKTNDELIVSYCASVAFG
T1 sequence (looked up) 2: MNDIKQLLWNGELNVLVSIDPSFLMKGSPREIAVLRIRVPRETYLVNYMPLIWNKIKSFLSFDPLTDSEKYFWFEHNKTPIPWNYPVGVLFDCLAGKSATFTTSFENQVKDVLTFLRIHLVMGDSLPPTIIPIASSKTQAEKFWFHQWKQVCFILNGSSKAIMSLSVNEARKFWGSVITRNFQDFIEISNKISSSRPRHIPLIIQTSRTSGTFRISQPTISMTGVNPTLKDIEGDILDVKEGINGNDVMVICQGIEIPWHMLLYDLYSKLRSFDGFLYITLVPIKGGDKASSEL

Atg12~Atg5-Atg16 complex = molecular target: T2, Atg12~Atg5-Atg16 complex (S. cerevisiae, UniProt P38316 1-186; Q12380 1-294; Q03818 1-150, conjugated to Atg5 (Atg12~Atg5 protein conjugate) | conjugated to Atg12); experiment: as above
T2 construct: Atg12, S. cerevisiae; Atg5, S. cerevisiae; Atg16, S. cerevisiae; conjugate made by co-expression with Atg7 and Atg10 (SMC131); details in Romanov et al., 2012; also called E3-like complex; source: E. coli Rosetta pLysS; Atg12~Atg5 conjugate mixed 1:1 with purified Atg16, purified by size exclusion chromatography; not shown: GST, N-terminal, cleaved; copies: + +
T2 sequence (looked up) 1: T1 sequence (looked up) 1
T2 sequence (looked up) 2: T1 sequence (looked up) 2
T2 sequence (looked up) 3: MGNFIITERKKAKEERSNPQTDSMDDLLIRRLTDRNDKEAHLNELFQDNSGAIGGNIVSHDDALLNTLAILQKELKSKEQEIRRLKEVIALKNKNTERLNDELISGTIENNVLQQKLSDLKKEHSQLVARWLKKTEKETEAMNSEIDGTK

[2] = molecular target: T3, Atg12~Atg5-Atg16-mCherry complex (S. cerevisiae, UniProt P38316 1-186; Q12380 1-294; Q03818 1-150, conjugated to Atg5 (Atg12~Atg5 protein conjugate) | conjugated to Atg12); experiment: microscopy-based protein-protein interaction assay on beads; glutathione beads coated with GST baits at 20 µM, Atg12~Atg5-Atg16-mCherry 5 µM, 25 mM HEPES pH 7.5, 150 mM NaCl, 1 mM DTT, imaged at equilibrium by spinning disc microscopy (Figures 1B, 2F, 2G)
T3 construct: Atg12, S. cerevisiae; Atg5, S. cerevisiae; Atg16, S. cerevisiae; also called Cx; source: E. coli Rosetta pLysS; Atg12~Atg5 conjugate mixed 1:1 with purified Atg16-mCherry, purified by size exclusion chromatography; not shown: His6, N-terminal, cleaved; mCherry, C-terminal, kept; copies: + +
T3 sequence (looked up) 1: T1 sequence (looked up) 1
T3 sequence (looked up) 2: T1 sequence (looked up) 2
T3 sequence (looked up) 3: T2 sequence (looked up) 3

Atg12~Atg5 conjugate [3] = molecular target: T1, Atg12~Atg5 conjugate; experiment: SEC; separately purified proteins mixed in a molar ratio 1:1 for 30 min at 4°C or on ice; the resulting complex purified on Superdex S200 16/60
[4] = molecular target: T4, Atg12~Atg5 (K57E) conjugate (S. cerevisiae, UniProt P38316 1-186; Q12380 1-294, K57E, conjugated to Atg5 | conjugated to Atg12); experiment: as above
T4 construct: Atg12, S. cerevisiae; Atg5, S. cerevisiae; source: E. coli Rosetta pLysS, purified
T4 sequence (looked up) 1: T1 sequence (looked up) 1
T4 sequence (looked up) 2: T1 sequence (looked up) 2 with K57E

[5] = molecular target: T5, Atg12~Atg5 (N84E) conjugate (S. cerevisiae, UniProt P38316 1-186; Q12380 1-294, N84E, conjugated to Atg5 | conjugated to Atg12); experiment: as above
T5 construct: Atg12, S. cerevisiae; Atg5, S. cerevisiae; source: E. coli Rosetta pLysS, purified
T5 sequence (looked up) 1: T1 sequence (looked up) 1
T5 sequence (looked up) 2: T1 sequence (looked up) 2 with N84E

[6] = molecular target: T6, Atg12~Atg5 (K57E,N84E) conjugate (S. cerevisiae, UniProt P38316 1-186; Q12380 1-294, K57E | N84E, conjugated to Atg5 | conjugated to Atg12); experiment: as above
T6 construct: Atg12, S. cerevisiae; Atg5, S. cerevisiae; source: E. coli Rosetta pLysS, purified
T6 sequence (looked up) 1: T1 sequence (looked up) 1
T6 sequence (looked up) 2: T1 sequence (looked up) 2 with K57E, N84E

Measured: binding result

B1: GST-Atg19 (natural protein, S. cerevisiae, UniProt P35193 1-415, looked up)
chain: MNNSKTNQQMNTSMGYPLTVYDECNKFQLIVPTLDANIMLWCIGQLSLLNDSNGCKHLFWQPNDKSNVRILLNNYDYGHLFKYLQCQRKCSVYIGEGTLKKYNLTISTSFDNFLDLTPSEEKESLCREDAHEDPVSPKAGSEEEISPNSTSNVVVSRECLDNFMKQLLKLEESLNKLELEQKVTNKEPNHRISGTIDIPEDRSELVNFFTELKTVKQLEDVFQRYHDYERLSQECDSKTEIASDHSKKETKIEVEPPNERSLQITMNQRDNSLYFQLFNNTNSVLAGNCKLKFTDAGDKPTTQIIDMGPHEIGIKEYKEYRYFPYALDLEAGSTIEIENQYGEVIFLGKYGSSPMINLRPPSRLSAESLQASQEPFYSFQIDTLPELDDSSIISTSISLSYDGDDNEKALTWEEL
notes: Atg19, S. cerevisiae cargo receptor; also called full length GST-Atg19; Atg19 full length; source: E. coli Rosetta pLysS, purified; not shown: GST, N-terminal, kept
binds: Atg12~Atg5 conjugate [1] | Atg12~Atg5-Atg16 complex | [2]

B2: Atg16-mCherry (natural protein, S. cerevisiae, UniProt Q03818 1-150, looked up)
chain: T2 sequence (looked up) 3
notes: Atg16, S. cerevisiae; also called 6xHis-Atg16-mCherry; source: E. coli Rosetta pLysS, purified (Ni-NTA, TEV, Superdex 200); not shown: His6, N-terminal, cleaved; mCherry, C-terminal, kept
binds: Atg12~Atg5 conjugate [3] | [4] | [5] | [6]
